Experimental data taken from publication PMC4574351, “Tubulin cofactors and Arl2 are cage-like chaperones that regulate the soluble αβ-tubulin pool for microtubule dynamics” (eLife, 2015).

Target: T1, Tubulin cofactor D (TBCD), S. cerevisiae Cin1p (S. cerevisiae, UniProt P40987 1-1014)
T1 construct: Tubulin cofactor D ortholog Cin1p, S. cerevisiae, full-length cDNA; TBCD is insoluble when expressed alone; also called Yeast TBCD (cin1p); His-TBCD; source: E. coli, co-expressed with TBCE and Arl2 from polycistronic vectors; co-purified as TBC-DEG (Ni-NTA, HiTrap SP, Superdex 200); not shown: 6xHis, N-terminal, kept
T1 sequence (looked up): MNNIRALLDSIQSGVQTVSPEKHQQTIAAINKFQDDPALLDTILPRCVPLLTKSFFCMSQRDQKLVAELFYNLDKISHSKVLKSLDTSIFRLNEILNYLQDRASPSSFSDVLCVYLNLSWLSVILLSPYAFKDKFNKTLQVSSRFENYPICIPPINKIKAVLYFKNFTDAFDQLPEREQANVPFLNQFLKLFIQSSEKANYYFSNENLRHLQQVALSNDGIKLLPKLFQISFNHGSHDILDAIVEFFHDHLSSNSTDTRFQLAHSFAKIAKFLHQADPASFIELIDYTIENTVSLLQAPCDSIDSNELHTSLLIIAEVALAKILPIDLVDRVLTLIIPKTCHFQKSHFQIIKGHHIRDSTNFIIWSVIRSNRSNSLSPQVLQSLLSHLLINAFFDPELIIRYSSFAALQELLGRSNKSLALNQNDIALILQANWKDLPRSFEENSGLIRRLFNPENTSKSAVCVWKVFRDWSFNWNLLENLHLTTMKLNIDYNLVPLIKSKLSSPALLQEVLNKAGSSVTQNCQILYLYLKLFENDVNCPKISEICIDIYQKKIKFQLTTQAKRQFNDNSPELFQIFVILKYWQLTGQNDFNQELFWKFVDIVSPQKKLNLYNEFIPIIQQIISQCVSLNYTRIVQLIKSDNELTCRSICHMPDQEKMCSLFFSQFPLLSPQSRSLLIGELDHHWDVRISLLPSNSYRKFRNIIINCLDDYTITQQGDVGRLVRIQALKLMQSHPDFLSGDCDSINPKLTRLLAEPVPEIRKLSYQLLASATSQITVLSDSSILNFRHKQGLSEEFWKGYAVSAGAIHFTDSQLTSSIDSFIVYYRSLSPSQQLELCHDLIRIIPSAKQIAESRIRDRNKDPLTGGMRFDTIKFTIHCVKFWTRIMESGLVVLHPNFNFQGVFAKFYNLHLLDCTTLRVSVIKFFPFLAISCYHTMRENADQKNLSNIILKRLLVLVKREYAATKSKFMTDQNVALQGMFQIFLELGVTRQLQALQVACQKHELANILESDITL
Experiment: SEC-MALS; WTC-03S5 column; purified TBC-DEG (subunits co-expressed and co-purified), αβ-tubulin, TBCC and their complexes; ternary complex with GDP·ALFx (wild type) or GTP (Q73L)
Conditions: both partners purified

B1: Arl2 GTPase, S. cerevisiae Cin4p (enzyme, UniProt P39110 1-191, looked up)
chain: MGLLSIIRKQKLRDKEIRCLILGLDNSGKSTIVNKLLPKDEQNNDGIMPTVGFQIHSLMIKDVTISLWDIGGQRTLRPFWDNYFDKTQAMIWCIDVSLSMRFDETLQELKELINRDENRIGYECAVIVVLNKIDLVEDKSELHRRCLLVESELKCLFKPDIRIELVKCSGVTGEGIDNLRDRLVESCHFTQ
notes: ADP ribosylation factor-like 2 ortholog Cin4p, S. cerevisiae, full-length cDNA; Tags were not tolerated on either end of Arl2; Insoluble when expressed alone; also called Yeast Arl2 (cin4p); source: E. coli, co-expressed with TBCD and TBCE from polycistronic vectors; co-purified as TBC-DEG (Ni-NTA, HiTrap SP, Superdex 200)
stoichiometry N: 1
